Tests used:
[1] = molecular target: T1, Tau oligomers (hTau40 aggregates <50 nm in length; sucrose gradient Fraction 3) (human, UniProt P10636 1-758); assay: immunogold EM, normalised to poly-His tag labeling of the same preparation
T1 construct: Prefibrillar aggregates of recombinant poly-His tagged hTau40 made with arachidonic acid; The number of chains is not defined; also called oligomeric structures; oligomer fraction

[2] = molecular target: T2, recombinant human Aβ42 (rPeptide) (human, UniProt P05067 672-713); assay: dot blot
T2 construct: domain: Aβ42; Tested in the monomeric (unaggregated), oligomeric and filamentous states; also called Aβ Olig; Aβ Fil
Description: (§1) 45 ng/spot was applied to the nitrocellulose. Total Tau was determined using Tau12. […] Each point represents a minimum of three independent measurements. […] Scale bar is 200 nm. […] Monomeric and dimeric Tau were isolated from the same aggregation reaction. Also included is an electroeluted monomeric sample that was never exposed to AA (−AA). 12 ng/spot was applied to the nitrocellulose.
(§2) For dot blots, samples were spotted directly onto nitrocellulose membranes (44). Both Western and dot blot membranes were blocked with 5% nonfat dry milk in TBS, pH 7.4, and incubated in primary antibodies overnight at 4° C. For dot blots, 0.05% Triton X-100 was added to the TBS solution. The Tau12 (45), TauS (46), Tau7 (47), MOAB-2 (a mouse monoclonal antibody (IgG1) produced in the Binder laboratory what recognizes Aβ40 and −42), and TOC1 mouse monoclonal antibodies were used at 0.0067, 0.01, 0.04, 0.05, and 0.1 μg/ml, respectively. The mouse monoclonal anti-α-synuclein (Chemicon; MAB5320) and rabbit monoclonal anti-β-actin (Cell Signaling Technology; clone 13E5) antibodies were diluted to 1:2000 and 1:1000, respectively. The rabbit polyclonal antibodies R1 (48) and His-probe (Santa Cruz Biotechnology; clone H-15) were used at 0.0075 and 0.5 μg/ml, respectively. […]

[3] = molecular target: untagged recombinant full-length human α-synuclein (human, UniProt P37840 1-140); assay: dot blot
Description: as §1, §2

[4] = molecular target: tau deletion construct Δ221-238 (hTau40), aggregated (human, UniProt P10636 1-758); assay: aggregated deletion construct incubated with the antibody
Description: (§3) Two overlapping tau deletion constructs (Δ209-228 and Δ221-238) were aggregated and incubated with the TOC1 antibody or with the Tau7 antibody. Both were positive for Tau7 which recognizes the last 11 amino acids of tau, but negative for TOC1.

[5] = molecular target: tau deletion construct Δ209-228 (hTau40), aggregated (human, UniProt P10636 1-758); assay: as above
Description: as §3

[6] = molecular target: T3, Tau MTBR construct consisting of residues 244-372 of hTau40 (human, UniProt P10636 561-689); assay: dot blot of AA-assembled construct
T3 construct: Expressed in E. coli from pET-17b; Assembled with AA before the dot blot; not shown: poly-His tag C-terminal to residue 372
T3 sequence (P10636 other isoform, or with tags, fused parts or gaps): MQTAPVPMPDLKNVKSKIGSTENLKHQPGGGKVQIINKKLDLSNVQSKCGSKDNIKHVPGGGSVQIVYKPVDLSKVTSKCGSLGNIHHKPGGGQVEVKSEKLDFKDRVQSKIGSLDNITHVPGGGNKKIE

T2 sequence (P05067 672-713 limits assumed): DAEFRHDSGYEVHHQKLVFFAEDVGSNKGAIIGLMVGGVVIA
Sequence of tau deletion construct Δ209-228 (hTau40), aggregated (P10636 other isoform, or with tags, fused parts or gaps mutant): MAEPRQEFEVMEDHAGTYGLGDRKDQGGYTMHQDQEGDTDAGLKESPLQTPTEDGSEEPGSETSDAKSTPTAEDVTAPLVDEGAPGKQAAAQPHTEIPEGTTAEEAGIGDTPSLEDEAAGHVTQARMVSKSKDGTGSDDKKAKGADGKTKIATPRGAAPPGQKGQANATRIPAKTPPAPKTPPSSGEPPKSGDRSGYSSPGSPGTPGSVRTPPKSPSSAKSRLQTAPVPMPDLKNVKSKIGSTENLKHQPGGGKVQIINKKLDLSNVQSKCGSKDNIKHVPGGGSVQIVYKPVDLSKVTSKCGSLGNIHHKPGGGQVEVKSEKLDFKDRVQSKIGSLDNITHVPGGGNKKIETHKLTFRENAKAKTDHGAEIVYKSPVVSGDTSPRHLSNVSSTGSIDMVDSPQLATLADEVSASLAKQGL
T1 sequence (P10636 other isoform, or with tags, fused parts or gaps limits assumed): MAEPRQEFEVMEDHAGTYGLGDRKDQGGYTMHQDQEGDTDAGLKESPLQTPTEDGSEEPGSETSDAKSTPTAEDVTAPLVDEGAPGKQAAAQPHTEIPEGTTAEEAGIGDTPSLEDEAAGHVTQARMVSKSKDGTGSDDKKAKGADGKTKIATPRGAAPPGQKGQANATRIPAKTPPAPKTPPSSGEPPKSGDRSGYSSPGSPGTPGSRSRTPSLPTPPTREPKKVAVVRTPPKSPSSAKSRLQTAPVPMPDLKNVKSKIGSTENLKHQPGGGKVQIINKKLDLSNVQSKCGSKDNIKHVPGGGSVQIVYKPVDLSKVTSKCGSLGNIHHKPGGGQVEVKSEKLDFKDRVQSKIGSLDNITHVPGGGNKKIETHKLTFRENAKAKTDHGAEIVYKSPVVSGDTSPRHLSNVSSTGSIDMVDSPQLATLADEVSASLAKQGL
Sequence of tau deletion construct Δ221-238 (hTau40), aggregated (P10636 other isoform, or with tags, fused parts or gaps mutant): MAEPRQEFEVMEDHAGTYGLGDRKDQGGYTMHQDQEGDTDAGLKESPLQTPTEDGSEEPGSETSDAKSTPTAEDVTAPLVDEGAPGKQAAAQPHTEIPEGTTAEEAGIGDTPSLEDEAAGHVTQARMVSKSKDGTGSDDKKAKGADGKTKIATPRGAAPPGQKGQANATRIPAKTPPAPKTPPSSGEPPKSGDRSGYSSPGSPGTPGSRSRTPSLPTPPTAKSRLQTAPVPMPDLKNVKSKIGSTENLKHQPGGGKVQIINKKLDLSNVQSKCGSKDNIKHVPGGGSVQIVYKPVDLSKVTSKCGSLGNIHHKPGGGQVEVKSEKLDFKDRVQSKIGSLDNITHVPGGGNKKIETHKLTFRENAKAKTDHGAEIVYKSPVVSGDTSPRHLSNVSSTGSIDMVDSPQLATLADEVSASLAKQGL

B1: Tau oligomeric complex-1 (TOC1) monoclonal antibody (antibody)
heavy: QVQLQQPGAELVMPGASVKLSCKASGYTFTSYWMHWVKQRPGQGLEWIGEIDPSDSYTNYNQKFKGKSTLTVDKSSSTAYMQLSSLTSEDSAVYYCARSGDGSSPWYFDVWGTGTTVTVSSESQSFPNVFPLVSCESPLSDKNLVAMGCLARDFLPSTISFTWNYQNNTEVIQGIRTFPTLRTGGKYLATSQVLLSPKSILEGSDEYLVCKIHYGGKNKDLHVPIPAVAEMNPNVNVFVPPRDGFSGPAPRKSKLICEATNFTPKPITVSWLKDGKLVESGFTTDPVTIENKGSTPQTYKVISTLTISEIDWLNLNVYTCRVDHRGLTFLKNVSSTCAASPSTDILTFTIPPSFADIFLSKSANLTCLVSNLATYETLNISWASQSGEPLETKIKIMESHPNGTFSAKGVASVCVEDWNNRKEFVCTVTHRDLPSPQKKFISKPNEVHKHPPAVYLLPPAREQLNLRESATVTCLVKGFSPADISVQWLQRGQLLPQEKYVTSAPMPEPGAPGFYFTHSILTVTEEEWNSGETYTCVVGHEALPHLVTERTVDKSTGKPTLYNVSLIMSDTGGTCY
light: DVLMTQTPLSLPVSLGDQASISCRSSQSIVHSNGNTYLEWYLQKPGQSPKLLIYKVSNRFSGVPDRFSGSGSGTDFTLKISRVEAEDLGVYYCFQGSHVPRTFGGGTKLEIKRADAAPTVSIFPPSSEQLTSGGASVVCFLNNFYPKDINVKWKIDGSERQNGVLNSWTDQDSKDSTYSMSSTLTLTKDEYERHNSYTCEATHKTSTSPIVKSFNRNEC
notes: Mouse monoclonal of the IgM isotype, purified from hybridoma culture; Raised in Tau null mice against electroeluted B4M cross-linked Tau dimers and boosted with cross-linked oligomers; The light chain protein print marks the leader with a dash; For the heavy chain only the DNA print does (57 nt)
[1]
  fold preference of immunogold labeling, oligomers over filaments (TOC1:His tag labeling): > 7 fold
[2]
  binding result: no binding
[3]
  binding result: no binding
[4]
  binding result: no binding
[5]
  binding result: no binding
[6]
  binding result: no binding

Reference: patent publication US20120301473A1 (NORTHWESTERN UNIVERSITY, published 2012)
